The values below come from US20130203661A1 (AEGERION PHARMACEUTICALS, published 2013).

What is called IC50 is the concentration needed to halve the response being measured. Higher therefore signals weaker potency in that assay.

Experiment [1] addresses T1, chimeric Leptin (Hu)-EPO (Mu) receptor presented by the 32D OBECA cell line (human; murine, UniProt P48357 22-839; P14753 250-507).
T1 sequence (looked up): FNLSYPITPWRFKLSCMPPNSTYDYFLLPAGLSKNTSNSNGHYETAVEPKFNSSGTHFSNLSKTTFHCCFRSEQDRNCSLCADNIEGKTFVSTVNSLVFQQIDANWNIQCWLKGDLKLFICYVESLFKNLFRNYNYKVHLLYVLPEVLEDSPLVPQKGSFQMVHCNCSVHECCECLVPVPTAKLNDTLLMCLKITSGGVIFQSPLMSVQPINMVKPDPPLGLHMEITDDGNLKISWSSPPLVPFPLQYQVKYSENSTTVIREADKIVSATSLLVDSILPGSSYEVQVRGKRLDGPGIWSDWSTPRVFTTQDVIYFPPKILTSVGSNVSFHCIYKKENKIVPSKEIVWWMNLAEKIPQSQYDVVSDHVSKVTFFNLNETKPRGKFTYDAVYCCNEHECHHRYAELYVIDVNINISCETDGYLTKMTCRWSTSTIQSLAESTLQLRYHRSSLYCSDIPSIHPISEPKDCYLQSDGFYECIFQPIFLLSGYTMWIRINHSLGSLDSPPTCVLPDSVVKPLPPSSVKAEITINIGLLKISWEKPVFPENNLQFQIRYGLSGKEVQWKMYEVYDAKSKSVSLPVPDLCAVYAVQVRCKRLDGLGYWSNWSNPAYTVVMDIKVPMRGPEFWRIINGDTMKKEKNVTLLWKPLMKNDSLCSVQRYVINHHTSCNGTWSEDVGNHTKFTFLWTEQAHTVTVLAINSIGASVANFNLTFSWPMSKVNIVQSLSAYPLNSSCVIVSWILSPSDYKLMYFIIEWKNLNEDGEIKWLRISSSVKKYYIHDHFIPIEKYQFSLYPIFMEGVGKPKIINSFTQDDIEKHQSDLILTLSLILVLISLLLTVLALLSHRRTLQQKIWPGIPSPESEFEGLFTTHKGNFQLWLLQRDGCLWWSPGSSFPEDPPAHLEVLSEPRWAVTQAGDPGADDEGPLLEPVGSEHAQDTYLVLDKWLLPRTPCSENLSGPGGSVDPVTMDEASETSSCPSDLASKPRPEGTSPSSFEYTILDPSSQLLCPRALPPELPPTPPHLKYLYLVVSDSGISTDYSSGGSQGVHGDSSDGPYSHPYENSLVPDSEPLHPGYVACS
The experiment in a line: cell-based or functional assay.

Experiment [2] deals with T1, chimeric Leptin (Hu)-EPO (Mu) receptor …. The experiment in a line: Obeca cell binding: displacement of 125I-murine leptin from 32D OBECA cell membranes.

B1: Seal leptin with N-terminal methionine, and with amino acids 93-119 replaced with amino acids 95-121 (loop 3-4) of metreleptin (ligand)
chain: MPIQRVQDDTKTLIKTIITRINDISPPQGVCSRPRVAGLDFIPRVQSVRTLSGMDQILATYQQILTSLQSRSVVQIANDLANLRALLRLLASAKSCHLPWASGLETLDSLGGVLEASGYSTEVVALSRLKAALQDMLRQLDRNPGC
notes: Seal-human chimeric leptin; also called Compound 42; Cmpd 42
For B1, the “EC50 (Obeca Stat 5 functional assay)” value in experiment [1] came to 0.043 nM. Also, in experiment [2], the IC50 turned out to be 2.02 nM.

B2: Seal leptin with N-terminal methionine, with amino acids 71-92 replaced with amino acids 73-94 (helix 3) of metreleptin, and with amino acids 93-119 replaced … (ligand)
chain: MPIQRVQDDTKTLIKTIITRINDISPPQGVCSRPRVAGLDFIPRVQSVRTLSGMDQILATYQQILTSLQSRNVIQISNDLENLRDLLHVLAFSKSCHLPWASGLETLDSLGGVLEASGYSTEVVALSRLKAALQDMLRQLDRNPGC
notes: Seal-human chimeric leptin; also called Compound 50
For the molecule B2, the “EC50 (Obeca Stat 5 functional assay)” value in experiment [1] stood at 0.022 nM. Also, in experiment [2], the half-maximal inhibitory concentration (IC50) came out at 0.214 nM.

B3: Seal leptin with N-terminal methionine, and with amino acids 30 and 93-119 replaced with amino acids 32 and 95-121 (loop 3-4) of metreleptin (ligand)
chain: MPIQRVQDDTKTLIKTIITRINDISPPQGVSSRPRVAGLDFIPRVQSVRTLSGMDQILATYQQILTSLQSRSVVQIANDLANLRALLRLLASAKSCHLPWASGLETLDSLGGVLEASGYSTEVVALSRLKAALQDMLRQLDRNPGC
notes: Seal-human chimeric leptin; also called Compound 49; Cmpd 49
Take B3: the “EC50 (Obeca Stat 5 functional assay)” value in experiment [1] worked out at 0.034 nM. Moreover, the IC50 in experiment [2] is 0.105 nM.

B4: Seal leptin with N-terminal methionine, and with amino acids 71-92 replaced with amino acids 73-94 (helix 3) of metreleptin (ligand)
chain: MPIQRVQDDTKTLIKTIITRINDISPPQGVCSRPRVAGLDFIPRVQSVRTLSGMDQILATYQQILTSLQSRNVIQISNDLENLRDLLHVLAFSKSCPVPRARGSDTIKGLGNVLRASVHSTEVVALSRLKAALQDMLRQLDRNPGC
notes: Seal-human chimeric leptin; also called Compound 41; Cmpd 41
For the molecule B4, the “EC50 (Obeca Stat 5 functional assay)” value in experiment [1] is 0.028 nM. For the same molecule, in experiment [2], the IC50 stood at 0.555 nM.

B5: Seal leptin with N-terminal methionine, and with amino acids 30 and 71-92 replaced with amino acids 32 and 73-94 (helix 3) of metreleptin (ligand)
chain: MPIQRVQDDTKTLIKTIITRINDISPPQGVSSRPRVAGLDFIPRVQSVRTLSGMDQILATYQQILTSLQSRNVIQISNDLENLRDLLHVLAFSKSCPVPRARGSDTIKGLGNVLRASVHSTEVVALSRLKAALQDMLRQLDRNPGC
notes: Seal-human chimeric leptin; also called Compound 48; Cmpd 48
In the case of B5, in experiment [1], the “EC50 (Obeca Stat 5 functional assay)” value is 0.039 nM. Besides, the IC50 in experiment [2] is 0.036 nM.

B6: Seal leptin with N-terminal methionine, and with amino acids 3-22 replaced with amino acids 5-24 (helix 1) of metreleptin, and amino acids 72-93 replaced with … (ligand)
chain: MPIQKVQDDTKTLIKTIVTRINDISPPQGVCSRPRVAGLDFIPRVQSVRTLSGMDQILATYQQILTSLQSRNVIQISNDLENLRDLLHVLAFSKSCPVPRARGSDTIKGLGNVLRASVHSTEVVALSRLKAALQDMLRQLDRNPGC
notes: Seal-human chimeric leptin; also called Compound 45
For B6, in experiment [1], the “EC50 (Obeca Stat 5 functional assay)” value worked out at 0.029 nM. The molecule further returned an IC50 in experiment [2] of 0.527 nM.

B7: Seal leptin with N-terminal methionine, and with amino acids 50-65 replaced with amino acids 52-67 (helix 2) of metreleptin (ligand)
chain: MPIQRVQDDTKTLIKTIITRINDISPPQGVCSRPRVAGLDFIPRVQSVRTLSKMDQTLAVYQQILTSLQSRSVVQIANDLANLRALLRLLASAKSCPVPRARGSDTIKGLGNVLRASVHSTEVVALSRLKAALQDMLRQLDRNPGC
notes: Seal-human chimeric leptin; also called Compound 43
As for B7, the “EC50 (Obeca Stat 5 functional assay)” value in experiment [1] turned out to be 0.054 nM. Besides, the IC50 in experiment [2] came to 3.08 nM.

B8: Seal leptin with N-terminal methionine, and with amino acids 3-22 replaced with amino acids 5-24 (helix 1) of metreleptin (ligand)
chain: MPIQKVQDDTKTLIKTIVTRINDISPPQGVCSRPRVAGLDFIPRVQSVRTLSGMDQILATYQQILTSLQSRSVVQIANDLANLRALLRLLASAKSCPVPRARGSDTIKGLGNVLRASVHSTEVVALSRLKAALQDMLRQLDRNPGC
Consider B8, for which, in experiment [1], the “EC50 (Obeca Stat 5 functional assay)” value was found to be 0.095 nM.

B9: Seal leptin with N-terminal methionine, and with amino acids 120-141 replaced with amino acids 122-143 (helix 4) of metreleptin (ligand)
chain: MPIQRVQDDTKTLIKTIITRINDISPPQGVCSRPRVAGLDFIPRVQSVRTLSGMDQILATYQQILTSLQSRSVVQIANDLANLRALLRLLASAKSCPVPRARGSDTIKGLGNVLRASVHSTEVVALSRLQGSLQDMLWQLDLNPGC
notes: Seal-human chimeric leptin; also called Compound 44
Regarding B9, the “EC50 (Obeca Stat 5 functional assay)” value in experiment [1] worked out at 0.032 nM. The IC50 in experiment [2] worked out at 3.54 nM.

B10: Seal leptin with N-terminal methionine, and with amino acids 23-49 replaced with amino acids 25-51 (AB loop) of metreleptin (ligand)
chain: MPIQRVQDDTKTLIKTIITRINDISHTQSVSSKQKVTGLDFIPGLHPILTLSGMDQILATYQQILTSLQSRSVVQIANDLANLRALLRLLASAKSCPVPRARGSDTIKGLGNVLRASVHSTEVVALSRLKAALQDMLRQLDRNPGC
notes: Seal-human chimeric leptin; also called Compound 46
On to B10, for which the “EC50 (Obeca Stat 5 functional assay)” value in experiment [1] was 0.042 nM. In experiment [2], this molecule yielded an IC50 of 0.479 nM.

B11: Seal leptin with N-terminal methionine, and with amino acids 71-92 replaced with amino acids 73-94 (helix 3) of metreleptin, and with amino acids 23-49 … (ligand)
chain: MPIQRVQDDTKTLIKTIITRINDISHTQSVSSKQKVTGLDFIPGLHPILTLSGMDQILATYQQILTSLQSRNVIQISNDLENLRDLLHVLAFSKSCPVPRARGSDTIKGLGNVLRASVHSTEVVALSRLKAALQDMLRQLDRNPGC
notes: Seal-human chimeric leptin; also called Compound 51
Consider B11, for which the “EC50 (Obeca Stat 5 functional assay)” value in experiment [1] came out at 0.038 nM. In experiment [2], the concentration for half-maximal inhibition (IC50) came out at 0.119 nM.

B12: Seal leptin with N-terminal methionine, with amino acids 23-49 replaced with amino acids 25-51 (AB loop) of metreleptin, and with amino acids 120-141 replaced … (ligand)
chain: MPIQRVQDDTKTLIKTIITRINDISHTQSVSSKQKVTGLDFIPGLHPILTLSGMDQILATYQQILTSLQSRSVVQIANDLANLRALLRLLASAKSCPVPRARGSDTIKGLGNVLRASVHSTEVVALSRLQGSLQDMLWQLDLNPGC
notes: Seal-human chimeric leptin; also called Compound 40
Turning to B12, the “EC50 (Obeca Stat 5 functional assay)” value in experiment [1] came out at 0.588 nM. In experiment [2], this molecule displayed a half-inhibitory concentration (IC50) of 2.41 nM.

B13: Seal leptin (ligand)
chain: PIQRVQDDTKTLIKTIITRINDISPPQGVCSRPRVAGLDFIPRVQSVRTLSGMDQILATYQQILTSLQSRSVVQIANDLANLRALLRLLASAKSCPVPRARGSDTIKGLGNVLRASVHSTEVVALSRLKAALQDMLRQLDRNPGC
notes: also called Compound 38; Cmpd 38
On to B13, for which, in experiment [1], the “EC50 (Obeca Stat 5 functional assay)” value was determined as 0.019 nM. This molecule gave an IC50 in experiment [2] of 2 nM.

B14: Seal leptin with N-terminal methionine, with amino acids 23-49 replaced with amino acids 25-51 (AB loop) of metreleptin, and with amino acids 93-119 replaced … (ligand)
chain: MPIQRVQDDTKTLIKTIITRINDISHTQSVSSKQKVTGLDFIPGLHPILTLSGMDQILATYQQILTSLQSRSVVQIANDLANLRALLRLLASAKSCHLPWASGLETLDSLGGVLEASGYSTEVVALSRLKAALQDMLRQLDRNPGC
notes: Seal-human chimeric leptin; also called Compound 47
As for B14, the “EC50 (Obeca Stat 5 functional assay)” value in experiment [1] came out at 0.0625 nM. This molecule also had an IC50 in experiment [2] of 0.788 nM.

B15: Seal leptin with N-terminal methionine, with amino acids 23-49 replaced with amino acids 25-51 (AB loop) of metreleptin, with amino acids 93-119 replaced with … (ligand)
chain: MPIQRVQDDTKTLIKTIITRINDISHTQSVSSKQKVTGLDFIPGLHPILTLSGMDQILATYQQILTSLQSRNVIQISNDLENLRDLLHVLAFSKSCHLPWASGLETLDSLGGVLEASGYSTEVVALSRLKAALQDMLRQLDRNPGC
Regarding B15, the “EC50 (Obeca Stat 5 functional assay)” value in experiment [1] stood at 0.044 nM.
